# In patent US20240270846A1 (published 2024):
# Target: T1, CD3 epsilon homodimer protein (UniProt P07766 23-126)
# T1 construct: construct not described; homodimer as printed; also called CD3 (CD3 epsilon)
# Experiment: SPR Biacore T200, CD3 epsilon homodimer immobilized; vs unaltered GLS3000;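 also: antibody variants flowed as analyte over CD3 epsilon homodimer amine-coupled to a CM4 chip, at 25 °C in HBS-EP+ running buffer, fitted with Biacore T200 Evaluation Software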
# T1 sequence (P07766 23-126): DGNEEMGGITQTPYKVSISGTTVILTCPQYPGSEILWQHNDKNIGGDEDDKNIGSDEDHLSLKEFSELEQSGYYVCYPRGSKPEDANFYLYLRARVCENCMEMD
row,Binder,KD ratio to GLS3000 (Affinity up)
1,"GLS3000 F55A (Kabat) L chain altered form, one-arm antibody with CE115HA000 (antibody, human IgG1, kappa, L234A L235A, N297A, name in Kabat numbering, one-arm antibody) heavy: QVQLVESGGGVVQPGRSLRLSCAASGFTFSNAWMHWVRQAPGKGLEWVAQIKAKSNNYATYYAESVKGRFTISRDDSKNSLYLQMNSLKTEDTAVYYCRYVHYGAYYGVDAWGQGTTVTVSSASTKGPSVFPLAPSSKSTSGGTAALGCLVKDYFPEPVTVSWNSGALTSGVHTFPAVLQSSGLYSLSSVVTVPSSSLGTQTYICNVNHKPSNTKVDKKVEPKSCDKTHTCPPCPAPEAAGGPSVFLFPPKPKDTLMISRTPEVTCVVVDVSHEDPEVKFNWYVDGVEVHNAKTKPREEQYASTYRVVSVLTVLHQDWLNGKEYKCKVSNKALPAPIEKTISKAKGQPREPQVYTLPPSRCELTKNQVSLSCAVKGFYPSDIAVEWESNGQPENNYKTTPPVLDSDGSFFLVSKLTVDKSRWQQGNVFSCSVMHEALHNHYTQKSLSLSPDYKDDDDK EPKSSDKTHTCPPCPAPELLGGPSVFLFPPKPKDTLMISRTPEVTCVVVDVSHEDPEVKFNWYVDGVEVHNAKTKPREEQYNSTYRVVSVLTVLHQDWLNGKEYKCKVSNKALPAPIEKTISKAKGQPREPQVCTLPPSRDELTKNQVSLWCLVKGFYPSDIAVEWESNGQPENNYKTTPPVLDSDGSFFLYSKLTVDKSRWQQGNVFSCSVMHEALHNRYTQKSLSLSP light: DIVMTQSPLSLPVTPGEPASISCRSSQSLVHSNRNTYLHWYQQKPGQAPRLLIYKVSNRASGVPDRFSGSGSGTDFTLKISRVEAEDVGVYYCGQGTQVPYTFGQGTKLEIKRTVAAPSVFIFPPSDEQLKSGTASVVCLLNNFYPREAKVQWKVDNALQSGNSQESVTEQDSKDSTYSLSSTLTLSKADYEKHKVYACEVTHQGLSSPVTKSFNRGEC",1.16
2,"GLS3000 H27dD (Kabat) L chain altered form, one-arm antibody with CE115HA000 (antibody, human IgG1, kappa, L234A L235A, N297A, name in Kabat numbering, one-arm antibody) heavy: QVQLVESGGGVVQPGRSLRLSCAASGFTFSNAWMHWVRQAPGKGLEWVAQIKAKSNNYATYYAESVKGRFTISRDDSKNSLYLQMNSLKTEDTAVYYCRYVHYGAYYGVDAWGQGTTVTVSSASTKGPSVFPLAPSSKSTSGGTAALGCLVKDYFPEPVTVSWNSGALTSGVHTFPAVLQSSGLYSLSSVVTVPSSSLGTQTYICNVNHKPSNTKVDKKVEPKSCDKTHTCPPCPAPEAAGGPSVFLFPPKPKDTLMISRTPEVTCVVVDVSHEDPEVKFNWYVDGVEVHNAKTKPREEQYASTYRVVSVLTVLHQDWLNGKEYKCKVSNKALPAPIEKTISKAKGQPREPQVYTLPPSRCELTKNQVSLSCAVKGFYPSDIAVEWESNGQPENNYKTTPPVLDSDGSFFLVSKLTVDKSRWQQGNVFSCSVMHEALHNHYTQKSLSLSPDYKDDDDK EPKSSDKTHTCPPCPAPELLGGPSVFLFPPKPKDTLMISRTPEVTCVVVDVSHEDPEVKFNWYVDGVEVHNAKTKPREEQYNSTYRVVSVLTVLHQDWLNGKEYKCKVSNKALPAPIEKTISKAKGQPREPQVCTLPPSRDELTKNQVSLWCLVKGFYPSDIAVEWESNGQPENNYKTTPPVLDSDGSFFLYSKLTVDKSRWQQGNVFSCSVMHEALHNRYTQKSLSLSP light: DIVMTQSPLSLPVTPGEPASISCRSSQSLVDSNRNTYLHWYQQKPGQAPRLLIYKVSNRFSGVPDRFSGSGSGTDFTLKISRVEAEDVGVYYCGQGTQVPYTFGQGTKLEIKRTVAAPSVFIFPPSDEQLKSGTASVVCLLNNFYPREAKVQWKVDNALQSGNSQESVTEQDSKDSTYSLSSTLTLSKADYEKHKVYACEVTHQGLSSPVTKSFNRGEC",13600
3,"GLS3000 H27dE (Kabat) L chain altered form, one-arm antibody with CE115HA000 (antibody, human IgG1, kappa, L234A L235A, N297A, name in Kabat numbering, one-arm antibody) heavy: QVQLVESGGGVVQPGRSLRLSCAASGFTFSNAWMHWVRQAPGKGLEWVAQIKAKSNNYATYYAESVKGRFTISRDDSKNSLYLQMNSLKTEDTAVYYCRYVHYGAYYGVDAWGQGTTVTVSSASTKGPSVFPLAPSSKSTSGGTAALGCLVKDYFPEPVTVSWNSGALTSGVHTFPAVLQSSGLYSLSSVVTVPSSSLGTQTYICNVNHKPSNTKVDKKVEPKSCDKTHTCPPCPAPEAAGGPSVFLFPPKPKDTLMISRTPEVTCVVVDVSHEDPEVKFNWYVDGVEVHNAKTKPREEQYASTYRVVSVLTVLHQDWLNGKEYKCKVSNKALPAPIEKTISKAKGQPREPQVYTLPPSRCELTKNQVSLSCAVKGFYPSDIAVEWESNGQPENNYKTTPPVLDSDGSFFLVSKLTVDKSRWQQGNVFSCSVMHEALHNHYTQKSLSLSPDYKDDDDK EPKSSDKTHTCPPCPAPELLGGPSVFLFPPKPKDTLMISRTPEVTCVVVDVSHEDPEVKFNWYVDGVEVHNAKTKPREEQYNSTYRVVSVLTVLHQDWLNGKEYKCKVSNKALPAPIEKTISKAKGQPREPQVCTLPPSRDELTKNQVSLWCLVKGFYPSDIAVEWESNGQPENNYKTTPPVLDSDGSFFLYSKLTVDKSRWQQGNVFSCSVMHEALHNRYTQKSLSLSP light: DIVMTQSPLSLPVTPGEPASISCRSSQSLVESNRNTYLHWYQQKPGQAPRLLIYKVSNRFSGVPDRFSGSGSGTDFTLKISRVEAEDVGVYYCGQGTQVPYTFGQGTKLEIKRTVAAPSVFIFPPSDEQLKSGTASVVCLLNNFYPREAKVQWKVDNALQSGNSQESVTEQDSKDSTYSLSSTLTLSKADYEKHKVYACEVTHQGLSSPVTKSFNRGEC",42.3
4,"GLS3000 H27dF (Kabat) L chain altered form, one-arm antibody with CE115HA000 (antibody, human IgG1, kappa, L234A L235A, N297A, name in Kabat numbering, one-arm antibody) heavy: QVQLVESGGGVVQPGRSLRLSCAASGFTFSNAWMHWVRQAPGKGLEWVAQIKAKSNNYATYYAESVKGRFTISRDDSKNSLYLQMNSLKTEDTAVYYCRYVHYGAYYGVDAWGQGTTVTVSSASTKGPSVFPLAPSSKSTSGGTAALGCLVKDYFPEPVTVSWNSGALTSGVHTFPAVLQSSGLYSLSSVVTVPSSSLGTQTYICNVNHKPSNTKVDKKVEPKSCDKTHTCPPCPAPEAAGGPSVFLFPPKPKDTLMISRTPEVTCVVVDVSHEDPEVKFNWYVDGVEVHNAKTKPREEQYASTYRVVSVLTVLHQDWLNGKEYKCKVSNKALPAPIEKTISKAKGQPREPQVYTLPPSRCELTKNQVSLSCAVKGFYPSDIAVEWESNGQPENNYKTTPPVLDSDGSFFLVSKLTVDKSRWQQGNVFSCSVMHEALHNHYTQKSLSLSPDYKDDDDK EPKSSDKTHTCPPCPAPELLGGPSVFLFPPKPKDTLMISRTPEVTCVVVDVSHEDPEVKFNWYVDGVEVHNAKTKPREEQYNSTYRVVSVLTVLHQDWLNGKEYKCKVSNKALPAPIEKTISKAKGQPREPQVCTLPPSRDELTKNQVSLWCLVKGFYPSDIAVEWESNGQPENNYKTTPPVLDSDGSFFLYSKLTVDKSRWQQGNVFSCSVMHEALHNRYTQKSLSLSP light: DIVMTQSPLSLPVTPGEPASISCRSSQSLVFSNRNTYLHWYQQKPGQAPRLLIYKVSNRFSGVPDRFSGSGSGTDFTLKISRVEAEDVGVYYCGQGTQVPYTFGQGTKLEIKRTVAAPSVFIFPPSDEQLKSGTASVVCLLNNFYPREAKVQWKVDNALQSGNSQESVTEQDSKDSTYSLSSTLTLSKADYEKHKVYACEVTHQGLSSPVTKSFNRGEC",2.05
5,"GLS3000 H27dG (Kabat) L chain altered form, one-arm antibody with CE115HA000 (antibody, human IgG1, kappa, L234A L235A, N297A, name in Kabat numbering, one-arm antibody) heavy: QVQLVESGGGVVQPGRSLRLSCAASGFTFSNAWMHWVRQAPGKGLEWVAQIKAKSNNYATYYAESVKGRFTISRDDSKNSLYLQMNSLKTEDTAVYYCRYVHYGAYYGVDAWGQGTTVTVSSASTKGPSVFPLAPSSKSTSGGTAALGCLVKDYFPEPVTVSWNSGALTSGVHTFPAVLQSSGLYSLSSVVTVPSSSLGTQTYICNVNHKPSNTKVDKKVEPKSCDKTHTCPPCPAPEAAGGPSVFLFPPKPKDTLMISRTPEVTCVVVDVSHEDPEVKFNWYVDGVEVHNAKTKPREEQYASTYRVVSVLTVLHQDWLNGKEYKCKVSNKALPAPIEKTISKAKGQPREPQVYTLPPSRCELTKNQVSLSCAVKGFYPSDIAVEWESNGQPENNYKTTPPVLDSDGSFFLVSKLTVDKSRWQQGNVFSCSVMHEALHNHYTQKSLSLSPDYKDDDDK EPKSSDKTHTCPPCPAPELLGGPSVFLFPPKPKDTLMISRTPEVTCVVVDVSHEDPEVKFNWYVDGVEVHNAKTKPREEQYNSTYRVVSVLTVLHQDWLNGKEYKCKVSNKALPAPIEKTISKAKGQPREPQVCTLPPSRDELTKNQVSLWCLVKGFYPSDIAVEWESNGQPENNYKTTPPVLDSDGSFFLYSKLTVDKSRWQQGNVFSCSVMHEALHNRYTQKSLSLSP light: DIVMTQSPLSLPVTPGEPASISCRSSQSLVGSNRNTYLHWYQQKPGQAPRLLIYKVSNRFSGVPDRFSGSGSGTDFTLKISRVEAEDVGVYYCGQGTQVPYTFGQGTKLEIKRTVAAPSVFIFPPSDEQLKSGTASVVCLLNNFYPREAKVQWKVDNALQSGNSQESVTEQDSKDSTYSLSSTLTLSKADYEKHKVYACEVTHQGLSSPVTKSFNRGEC",3.51
6,"GLS3000 H27dI (Kabat) L chain altered form, one-arm antibody with CE115HA000 (antibody, human IgG1, kappa, L234A L235A, N297A, name in Kabat numbering, one-arm antibody) heavy: QVQLVESGGGVVQPGRSLRLSCAASGFTFSNAWMHWVRQAPGKGLEWVAQIKAKSNNYATYYAESVKGRFTISRDDSKNSLYLQMNSLKTEDTAVYYCRYVHYGAYYGVDAWGQGTTVTVSSASTKGPSVFPLAPSSKSTSGGTAALGCLVKDYFPEPVTVSWNSGALTSGVHTFPAVLQSSGLYSLSSVVTVPSSSLGTQTYICNVNHKPSNTKVDKKVEPKSCDKTHTCPPCPAPEAAGGPSVFLFPPKPKDTLMISRTPEVTCVVVDVSHEDPEVKFNWYVDGVEVHNAKTKPREEQYASTYRVVSVLTVLHQDWLNGKEYKCKVSNKALPAPIEKTISKAKGQPREPQVYTLPPSRCELTKNQVSLSCAVKGFYPSDIAVEWESNGQPENNYKTTPPVLDSDGSFFLVSKLTVDKSRWQQGNVFSCSVMHEALHNHYTQKSLSLSPDYKDDDDK EPKSSDKTHTCPPCPAPELLGGPSVFLFPPKPKDTLMISRTPEVTCVVVDVSHEDPEVKFNWYVDGVEVHNAKTKPREEQYNSTYRVVSVLTVLHQDWLNGKEYKCKVSNKALPAPIEKTISKAKGQPREPQVCTLPPSRDELTKNQVSLWCLVKGFYPSDIAVEWESNGQPENNYKTTPPVLDSDGSFFLYSKLTVDKSRWQQGNVFSCSVMHEALHNRYTQKSLSLSP light: DIVMTQSPLSLPVTPGEPASISCRSSQSLVISNRNTYLHWYQQKPGQAPRLLIYKVSNRFSGVPDRFSGSGSGTDFTLKISRVEAEDVGVYYCGQGTQVPYTFGQGTKLEIKRTVAAPSVFIFPPSDEQLKSGTASVVCLLNNFYPREAKVQWKVDNALQSGNSQESVTEQDSKDSTYSLSSTLTLSKADYEKHKVYACEVTHQGLSSPVTKSFNRGEC",7.77
